Results taken from patent publication US20230220081A1 (published 2023).

Biological target: 21480B
Assay: Octet

Kd: 8.1 nM
B1: IL2Rbeta (receptor)
chain: AVNGTSQFTCFYNSRANISCVWSQDGALQDTSCQVHAWPDRRRWNQTCELLPVSQASWACNLILGAPDSQKLTTVDIVTLRVLCREGVRWRVMAIQDFKPFENLRLMAPISLQVVHVETHRCNISWEISQASHYFERHLEFEARTLSPGHTWEEAPLLTLKQKQEWICLETLTPDTQYEFQVRVKPLQGEFTTWSPWSQPLAFRTKPAALGKD
